From US6964763B1, “Methods and compositions for inhibiting HIV infectivity and blocking chemokine activity” (priority 1997, dated 2005)

How the values were obtained:
[1] = tested on: CD4-gp120 complex formation; assay: Competitive inhibition of 125I-CD4 binding to immobilized gp120; set-up: species or system HIV-1 (MN and LAI isolates); conditions: 10-fold molar excess (0.5 μM) competitor, 50 nM 125I-CD4, MN and LAI gp120
Method: FIG. 5 is a graph showing competitive inhibition of ^125I-CD4 binding to gp120. […] Samples were incubated, and bound TSP1 was measured as in FIG. 2. A single data set of triplicate samples (η=3, error as SD) is shown.
Radiolabeling was performed with Na[^125I]
These observations support a role for salivary TSP1 as a direct inhibitor of HIV infectivity.

[2] = target: recombinant HIV-1 gp160 (gp120 non-covalently linked to gp41) (Human immunodeficiency virus type 1 group M subtype B, UniProt P03375); conditions: 10-fold molar excess (0.5 μM) unlabeled competitor, 50 nM 125I-TSP1
Method: Increasing concentrations of soluble ^125I-labeled TSP1 (1 nM-μM) were added to immobilized recombinant HIV-1 gp160 for 3 hours at 22° C., and bound TSP1 measured after extensive washing. Non-linear curve fit was generated with Excell™ version 5.0. Apparent affinity was estimated from Scatchard analysis. (n=2; error calculated as standard deviation, SD).
A fixed concentration of ^125I-labeled TSP 1(50 nM) was added to immobilized rgp 160 in the absence or presence of 10-fold molar excess (0.5 μM) unlabeled TSP1, fusion protein LFP75-155 containing the LIMPII TSP binding domain (aa 75-155), or downstream fusion protein LFP 156-243. Samples were incubated, and bound TSP 1 was measured as in FIG. 2A. Plots represent single data sets of triplicate samples. (n=3, error as SD).
Briefly, TSP1 (5-10 μg/ml) or fusion proteins and peptides (10-20 μg/ml) were immobilized on detachable 96-well microtiter plate strips (Immulon-4 Remov-a-well, Dynatech Laboratories, Inc.), by overnight incubation at 4° C. in carbonate buffer (100 mM Na2CO3/1 mM MgCl2/0.02% NaN3, pH 9.8). Washed wells were blocked with 0.5% bovine serum albumin (“BSA”), then incubated in triplicate with soluble radiolabeled ligand for 2.5 hours at 37° C. After extensive washing in 50 mM Tris pH 7.5, 150 mM NaCl, 0.5% Tween-20 (TBS-Tween), bound radioactivity was quantified by gamma counter. Radiolabeling was performed with Na[^125I] […] Specific activity of Na[^125I] was determined for each experiment, ranging from 0.06-1.0 μCi/μg. Specific binding was determined as quenchable in the presence of excess unlabeled ligand, above background binding to BSA-coated wells.

HIV-1 isolate IIIB = assay: HIV-1 infectivity assay, virus pre-incubated with TSP1 or saliva, p24 ELISA day 7; format: cell-based
Method: HIV-1 isolate IIIB was pre-incubated in the absence of TSP1, or with various concentrations of purified TSP1 for 1 hour at 37° C. Pre-incubated virus-TSP1 mixtures were added to target cells either directly (−), or first passed through 0.2 μm filters (+). Phorbol myrisate acetate (“PMA”) activated primary peripheral blood mononuclear cells (“PBMC”), SK23 (T-cell line) or U937 (promonocytic line) were inoculated with the multiplicities of infection (“moi”) indicated. After an additional 1 hour at 37° C., infected cells were washed, cultured for 7 days, and HIV-1 p24 antigen measured by ELISA. Inhibition is expressed for a single data set as percent of maximum p24 detected in the absence of TSP1.
PMA-stimulated primary PBMC were infected with 0.02 moi HIV/IIIB that had been pre-incubated with TSP1 alone, or with LIMPII fusion protein LFP75-155 alone or in the presence of TSP1, and filtered prior to incubation as in FIG. 7. TSP-mediated inhibition is expressed as percent decrease in p24 relative to maximum p24 detected in the absence of TSP 1. Data shown represent the average of two independent experiments (error as SD). […]

Molecule	inhibition of 125I-CD4 binding to immobilized gp120 [1]	inhibition of 125I-TSP1 binding to gp160 [2]	abrogation of the inhibitory effect of TSP1 by competitor (HIV-1 isolate IIIB; 1 μM LIMPII peptide, 50-100 μg/ml TSP1, PBMC, 0.02 moi)	decrease of HIV-1 infectivity, peptide alone (HIV-1 isolate IIIB; LIMPII peptide alone, PBMC)
LFP75-155: GST fusion protein containing the LIMPII TSP binding domain (aa 75-155) (protein, left off: a dimerising Fc or GST) ILRGETPRVEEVGPYTYRELRNKANIQFGDNGTTISAVSNKAYVFERDQSVGDPKIDLIRTLNIPVLTVIEWSQVHFLREI	~89%	47±14%	–	–
LFP156-243: control GST fusion protein representing downstream LIMPII sequences (protein, left off: a dimerising Fc or GST) IEAMLKAYQQKLFVTHTVDELLWGYKDEILSLIHVFRPDISPYFGLFYEKNGTNDGDYVFLTGEDSYLNFTKIVEWNGKTSLDWWITD	32±5%	did not	–	–
CFP67-157: GST fusion protein containing the TSP1 binding domain of CD36 (aa 67-157) (protein, left off: a dimerising Fc or GST) IFDVQNPQEVMMNSSNIQVKQRGPYTYRVRFLAKENVTQDAEDNTVSFLQPNGAIFEPSLSVGTEADNFTVLNLAVAAASHIYQNQFVQMI	~89%	–	–	–
LIMPII peptide: LIMPII TSP-binding peptide, 10 kDa product purified after removal of GST moiety by proteolytic cleavage (protein) ILRGETPRVEEVGPYTYRELRNKANIQFGDNGTTISAVSNKAYVFERDQSVGDPKIDLIRTLNIPVLTVIEWSQVHFLREI	–	–	83-90%	9%
